Numbering of substitutions follows the chain as printed.
Target: T1, 12xHis-SUMO-Cdc48 (S. cerevisiae, UniProt P25694 1-835)
T1 construct: Cdc48, multifunctional ATPase, S. cerevisiae, full length; also called 12xHis-Sumo-tagged Cdc48; p97 in higher organisms
Assay: pull-down; GST-tagged Cuz1 species added to 12xHis-Sumo-tagged Cdc48 or to beads alone; bound Cuz1 seen by SDS-PAGE and anti-Cuz1 immunoblot; as previously described in ref. 7
Details: both partners purified

T1 sequence (P25694 whole entry): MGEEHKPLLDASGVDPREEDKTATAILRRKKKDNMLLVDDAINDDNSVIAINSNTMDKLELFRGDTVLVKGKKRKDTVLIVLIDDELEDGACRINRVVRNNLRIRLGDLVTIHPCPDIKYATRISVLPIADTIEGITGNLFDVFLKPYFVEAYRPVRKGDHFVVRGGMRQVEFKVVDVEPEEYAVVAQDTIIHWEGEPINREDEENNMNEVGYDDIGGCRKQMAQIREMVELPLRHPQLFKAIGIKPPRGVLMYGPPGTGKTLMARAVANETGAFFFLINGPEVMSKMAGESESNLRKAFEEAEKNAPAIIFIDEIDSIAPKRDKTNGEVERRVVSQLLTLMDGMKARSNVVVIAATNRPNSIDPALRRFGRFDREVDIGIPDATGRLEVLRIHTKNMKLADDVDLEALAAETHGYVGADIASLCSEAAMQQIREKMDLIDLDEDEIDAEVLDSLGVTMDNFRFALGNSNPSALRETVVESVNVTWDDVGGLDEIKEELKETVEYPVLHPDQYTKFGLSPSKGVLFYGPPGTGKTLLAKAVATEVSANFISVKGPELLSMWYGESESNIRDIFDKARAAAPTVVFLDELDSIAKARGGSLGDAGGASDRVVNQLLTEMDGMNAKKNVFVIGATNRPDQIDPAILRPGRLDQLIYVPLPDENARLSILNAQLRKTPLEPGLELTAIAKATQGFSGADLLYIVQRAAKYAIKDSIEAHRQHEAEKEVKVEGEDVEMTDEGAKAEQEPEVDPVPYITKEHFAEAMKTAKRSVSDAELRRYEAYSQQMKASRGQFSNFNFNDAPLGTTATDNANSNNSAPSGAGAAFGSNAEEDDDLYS

B1: GST-Cuz1, full length wild type (plasmid pJH150) (natural protein, S. cerevisiae, UniProt P53899 1-274, looked up)
chain: MSAAIEKETGMLDVGKHCAYCRQLDFLPFHCSFCNEDFCSNHRLKEDHHCRWLLEHEEVHKTEKSPSKSRDGSSSNDEAYFKSLLPERASVRIQRVSETREPLRGSNTAKVSSTLNSKTLDKIFKFFQRNEKRKSNNKSKKNFGSSSNKIIQLANLKKIAKGDPKIPMQNRIYIWCYLVDGDETDIAKEDTRMPLYINKMWPVGRAMDYLSIQLNVKSSTLTNSSSNDKFQLCKLKEGKQVSFYNIGASLRVTNEIKDLDTLYLVHNNADEKSN
notes: Cuz1 (systematic name Ynl155w), S. cerevisiae, 274 amino acids, full length; also called Ynl155w; GST-tagged Cuz1
B1: binds.

B2: GST-Cuz1 LDFL→AAAA, full length (plasmid pJH171) (natural protein, S. cerevisiae, UniProt P53899 1-274, looked up)
chain: B1 chain with L24A, D25A, F26A, L27A
notes: Cuz1 (systematic name Ynl155w), S. cerevisiae, 274 amino acids, full length, with LDFL (L24, D25, F26, L27) changed to AAAA; Made by site-directed mutagenesis of pJH150; also called Cuz1^LDFL→AAAA mutant; Cuz1 LDFL mutant
B2: binds.

From paper PMC5035049, “Solution Structure of the Cuz1 AN1 Zinc Finger Domain: An Exposed LDFLP Motif Defines a Subfamily of AN1 Proteins” (PLoS ONE, 2016)
